Data on 68 sequences can be found in the supplement of paper PMC10724198.

± gives the standard deviation of the averaged measurements.

The series concerns Saccharomyces cerevisiae. Description: protein stability index of tFT-peptide fusion (C-terminal peptide) (PSI (0-1 scale)); higher = more stable (slower turnover). The note with it: temperature: 30 C. As to the method: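 MPS profiling in S. cerevisiae of the yeast C-terminome library: the last 12 aa of each annotated ORF are fused to the C-terminus of a sfGFP-mCherry timer, after a GGGS linker. Cells are FACS-sorted into 8 mCherry/sfGFP bins and deep-sequenced. PSI runs from 0 (unstable) to 1 (stable); wild type and das1Δ backgrounds, two technical replicates each.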

Setting [1] is: genetic background: das1 deletion.

IYKEKYMKQGPK [DSF2 C-terminal 12 aa]: the protein stability index is 0.701 ± 0.071 under setting [1] and 0.701 ± 0.084 (genetic background: wild type).

Consider IYYMEQMLGKTQ [HSK3 C-terminal 12 aa], for which the protein stability index was found to be 0.696 ± 0.038 under setting [1] and 0.696 ± 0.024 (genetic background: wild type).

As for KALNEIFMITND [PXR1 C-terminal 12 aa], the protein stability index came out at 0.723 ± 0.013 under setting [1] and 0.763 ± 0.033 (genetic background: wild type).

In turn, KAPKSPEVIEID [UFD1 C-terminal 12 aa] showed a protein stability index under setting [1] of 0.6978 ± 0.0035 and a protein stability index (genetic background: wild type) of 0.684 ± 0.027.

Turning to KARPFKCSDKKQ [MZM1 C-terminal 12 aa], the protein stability index by setting is: under setting [1], 0.718 ± 0.016; (genetic background: wild type) 0.72792 ± 0.00048.

As to KDEPVKAHNKLK [SAS5 C-terminal 12 aa], the protein stability index by setting is: under setting [1], 0.693 ± 0.011; (genetic background: wild type) 0.654 ± 0.023.

KDETPEDNLEDK [VBA3 C-terminal 12 aa]: the protein stability index by setting is: under setting [1], 0.6896 ± 0.00088; (genetic background: wild type) 0.653 ± 0.017.

For the sequence KDNNISSYGSII [YPL162C C-terminal 12 aa], the protein stability index runs as follows: under setting [1], 0.693 ± 0.037; (genetic background: wild type) 0.668 ± 0.011.

With KEANPIKITPQP [MDL2 C-terminal 12 aa], the protein stability index by setting is: under setting [1], 0.682 ± 0.009; (genetic background: wild type) 0.708 ± 0.0083.

For KELEPVPPVSKS [OMS1 C-terminal 12 aa], the protein stability index under setting [1] came out at 0.7006 ± 0.007 and the protein stability index (genetic background: wild type) is 0.671 ± 0.01.

In the case of KEMWITGKIVED [IML1 C-terminal 12 aa], the protein stability index reads like this: under setting [1], 0.672 ± 0.021; (genetic background: wild type) 0.6639 ± 0.0055.

KGCYKLCKNLLE [KEI1 C-terminal 12 aa]: the protein stability index worked out at 0.686 ± 0.013 under setting [1] and 0.696 ± 0.043 (genetic background: wild type).

For the sequence KGDGKFWSSKKD [OM45 C-terminal 12 aa], the protein stability index came to 0.709 ± 0.0022 under setting [1] and 0.6744 ± 0.0029 (genetic background: wild type).

Regarding KGFQFGLGLAFL [SAM50 C-terminal 12 aa], the protein stability index is, setting by setting: under setting [1], 0.736 ± 0.034; (genetic background: wild type) 0.69 ± 0.019.

Consider KGHVHSPRHNND [YOR379C C-terminal 12 aa], for which the protein stability index runs as follows: under setting [1], 0.7103 ± 0.0065; (genetic background: wild type) 0.713 ± 0.035.

In the case of KGTCGCGESFMV [ISA1 C-terminal 12 aa], the protein stability index is 0.71 ± 0.0094 under setting [1] and 0.69 ± 0.045 (genetic background: wild type).

As for KHIDYRHAPGNI [RRN10 C-terminal 12 aa], the protein stability index is 0.6875 ± 0.0066 under setting [1] and 0.69587 ± 0.00057 (genetic background: wild type).

For the sequence KHKNILSFNNNT [YDR543C C-terminal 12 aa], the protein stability index is, setting by setting: under setting [1], 0.687 ± 0.02; (genetic background: wild type) 0.709 ± 0.041.

Regarding KHPRPFRQEHRC [YLR162W C-terminal 12 aa], the protein stability index runs as follows: under setting [1], 0.6986 ± 0.0027; (genetic background: wild type) 0.6577 ± 0.0057.

As for KHQFLTKAKRFF [FET3 C-terminal 12 aa], the protein stability index runs as follows: under setting [1], 0.693 ± 0.0079; (genetic background: wild type) 0.7186 ± 0.0014.

In the case of KHVSGKILGFVY [RPS22A C-terminal 12 aa], the protein stability index runs as follows: under setting [1], 0.631 ± 0.045; (genetic background: wild type) 0.63 ± 0.02.

As to KIPKTYSELSCL [DUN1 C-terminal 12 aa], the protein stability index runs as follows: under setting [1], 0.693 ± 0.042; (genetic background: wild type) 0.669 ± 0.037.

For KKLHEEYFGEDK [CRS1 C-terminal 12 aa], the protein stability index was 0.673 ± 0.031 under setting [1] and 0.646 ± 0.032 (genetic background: wild type).

Take KKMEARGQSIWV [RPN9 C-terminal 12 aa]: the protein stability index is, setting by setting: under setting [1], 0.713 ± 0.0075; (genetic background: wild type) 0.6728 ± 0.0014.

On to KKNGYIYFYTRC [UBP14 C-terminal 12 aa], for which the protein stability index was 0.69 ± 0.0087 under setting [1] and 0.6625 ± 0.0026 (genetic background: wild type).

For the sequence KKQKVVPLPTDI [SMM1 C-terminal 12 aa], the protein stability index runs as follows: under setting [1], 0.6919 ± 0.0007; (genetic background: wild type) 0.654 ± 0.015.

Regarding KKSKPRANKLTI [ECM2 C-terminal 12 aa], the protein stability index runs as follows: under setting [1], 0.713 ± 0.02; (genetic background: wild type) 0.696 ± 0.017.

For the sequence KKYKFKLKFIKN [RNY1 C-terminal 12 aa], the protein stability index came out at 0.7118 ± 0.006 under setting [1] and 0.642 ± 0.02 (genetic background: wild type).

In the case of KLDLPNVFHKKG [CHS2 C-terminal 12 aa], the protein stability index came to 0.713 ± 0.027 under setting [1] and 0.706 ± 0.037 (genetic background: wild type).

On to KLMVEEINLDID [FZO1 C-terminal 12 aa], for which the protein stability index under setting [1] came out at 0.7048 ± 0.0045 and the protein stability index (genetic background: wild type) was 0.747 ± 0.092.

For the sequence KLRNSNNTRAED [AVO2 C-terminal 12 aa], the protein stability index is, setting by setting: under setting [1], 0.67 ± 0.0067; (genetic background: wild type) 0.672 ± 0.011.

KLTSTVTLNLLY [YGR107W C-terminal 12 aa]: the protein stability index under setting [1] worked out at 0.692 ± 0.019 and the protein stability index (genetic background: wild type) was 0.697 ± 0.029.

With KLYILKHLGSKQ [RRG9 C-terminal 12 aa], the protein stability index under setting [1] is 0.681 ± 0.037 and the protein stability index (genetic background: wild type) is 0.685 ± 0.019.

Consider KMVLSHMKEKKD [YGL140C C-terminal 12 aa], for which the protein stability index by setting is: under setting [1], 0.688 ± 0.011; (genetic background: wild type) 0.682 ± 0.017.

Regarding KNEDSEVEDDLI [CUS2 C-terminal 12 aa], the protein stability index by setting is: under setting [1], 0.703 ± 0.042; (genetic background: wild type) 0.67 ± 0.0098.

Regarding KNGKVDPLKNFK [DBP9 C-terminal 12 aa], the protein stability index is 0.701 ± 0.015 under setting [1] and 0.684 ± 0.026 (genetic background: wild type).

Consider KNSGEKLVAVLN [YCR102C C-terminal 12 aa], for which the protein stability index under setting [1] is 0.6723 ± 0.001 and the protein stability index (genetic background: wild type) turned out to be 0.666 ± 0.025.

As for KPDVERVYKENT [FAA4 C-terminal 12 aa], the protein stability index by setting is: under setting [1], 0.701 ± 0.025; (genetic background: wild type) 0.665 ± 0.011.

KPEFVDIINSRN [TPI1 C-terminal 12 aa] displayed a protein stability index under setting [1] of 0.7145 ± 0.0052 and a protein stability index (genetic background: wild type) of 0.691 ± 0.026.

Turning to KPLSKPAPDLDY [CWC25 C-terminal 12 aa], the protein stability index runs as follows: under setting [1], 0.66 ± 0.024; (genetic background: wild type) 0.676 ± 0.0075.

On to KPRKKAKALPKT [RTT109 C-terminal 12 aa], for which the protein stability index stood at 0.689 ± 0.032 under setting [1] and 0.737 ± 0.014 (genetic background: wild type).

As for KPRWYRIWNFWC [GAP1 C-terminal 12 aa], the protein stability index by setting is: under setting [1], 0.803 ± 0.017; (genetic background: wild type) 0.419 ± 0.024.

For the sequence KQIDVFNGPKRV [MIG2 C-terminal 12 aa], the protein stability index by setting is: under setting [1], 0.713 ± 0.0091; (genetic background: wild type) 0.7313 ± 0.0019.

As to KQNIPRKPNVDI [BNS1 C-terminal 12 aa], the protein stability index was found to be 0.6875 ± 0.0057 under setting [1] and 0.677 ± 0.018 (genetic background: wild type).

For KRDIVFAASLYL [SKI2 C-terminal 12 aa], the protein stability index turned out to be 0.6855 ± 0.0061 under setting [1] and 0.739 ± 0.12 (genetic background: wild type).

In the case of KRDKLKKNCVIM [YGL082W C-terminal 12 aa], the protein stability index came to 0.74 ± 0.016 under setting [1] and 0.698 ± 0.034 (genetic background: wild type).

On to “KREKTMRNSMLP [YIR036W-A C-terminal 12 aa]”, for which the protein stability index runs as follows: under setting [1], 0.684 ± 0.0091; (genetic background: wild type) 0.736 ± 0.076.

For the sequence KRLTSRLNKKHK [SPN1 C-terminal 12 aa], the protein stability index is, setting by setting: under setting [1], 0.6937 ± 0.0067; (genetic background: wild type) 0.69 ± 0.046.

Take KRSLTLPVGMKI [AIM44 C-terminal 12 aa]: the protein stability index reads like this: under setting [1], 0.683 ± 0.026; (genetic background: wild type) 0.658 ± 0.02.

KRYTVKKALAKA [RPL14A C-terminal 12 aa] yielded a protein stability index under setting [1] of 0.6258 ± 0.0061 and a protein stability index (genetic background: wild type) of 0.627 ± 0.013.

Take KSADPDAMDTTE [RVB2 C-terminal 12 aa]: the protein stability index under setting [1] is 0.702 ± 0.016 and the protein stability index (genetic background: wild type) turned out to be 0.695 ± 0.021.

Consider KSAKATKASQEL [HTA1 C-terminal 12 aa], for which the protein stability index by setting is: under setting [1], 0.691 ± 0.011; (genetic background: wild type) 0.675 ± 0.045.

On to KSEIDTLKQDQK [TYE7 C-terminal 12 aa], for which the protein stability index runs as follows: under setting [1], 0.656 ± 0.011; (genetic background: wild type) 0.6659 ± 0.0018.

Consider KTATTLPGRRFV [LUC7 C-terminal 12 aa], for which the protein stability index is, setting by setting: under setting [1], 0.6923 ± 0.0011; (genetic background: wild type) 0.704 ± 0.017.

With KVHRKKVPGCTI [YGR011W C-terminal 12 aa], the protein stability index reads like this: under setting [1], 0.697 ± 0.015; (genetic background: wild type) 0.686 ± 0.029.

For the sequence KVIFKDRPLPIM [CTF8 C-terminal 12 aa], the protein stability index reads like this: under setting [1], 0.643 ± 0.032; (genetic background: wild type) 0.611 ± 0.012.

For KVYDELKKQGLV [PRP9 C-terminal 12 aa], the protein stability index is, setting by setting: under setting [1], 0.693 ± 0.017; (genetic background: wild type) 0.676 ± 0.0062.

KYNSQKRATTPA [COQ4 C-terminal 12 aa] returned a protein stability index under setting [1] of 0.712 ± 0.027 and a protein stability index (genetic background: wild type) of 0.6698 ± 0.0039.

On to LAFRAHTMPNAP [ATO3 C-terminal 12 aa], for which the protein stability index is, setting by setting: under setting [1], 0.699 ± 0.0097; (genetic background: wild type) 0.694 ± 0.033.

Turning to LATWDKQGNLKY [SRN2 C-terminal 12 aa], the protein stability index runs as follows: under setting [1], 0.724 ± 0.012; (genetic background: wild type) 0.696 ± 0.026.

With LCLLESLDCLAK [PMT7 C-terminal 12 aa], the protein stability index was 0.6692 ± 0.0024 under setting [1] and 0.68 ± 0.017 (genetic background: wild type).

With LCPVFFTWTNLR [YSR3 C-terminal 12 aa], the protein stability index runs as follows: under setting [1], 0.656 ± 0.008; (genetic background: wild type) 0.656 ± 0.034.

For LDKEMADYFEKK [YRA1 C-terminal 12 aa], the protein stability index is, setting by setting: under setting [1], 0.693 ± 0.013; (genetic background: wild type) 0.706 ± 0.035.

Turning to LEDHTPPEDKPN [QCR10 C-terminal 12 aa], the protein stability index came out at 0.718 ± 0.021 under setting [1] and 0.695 ± 0.0076 (genetic background: wild type).

Take LEEFLVRGTNNQ [ATP25 C-terminal 12 aa]: the protein stability index is, setting by setting: under setting [1], 0.711 ± 0.018; (genetic background: wild type) 0.663 ± 0.012.

LEEPYKPQRQRC [YPL088W C-terminal 12 aa]: the protein stability index is 0.6798 ± 0.0049 under setting [1] and 0.718 ± 0.0087 (genetic background: wild type).

LFTCTDPNDTIE [MMS4 C-terminal 12 aa]: the protein stability index is 0.721 ± 0.027 under setting [1] and 0.72 ± 0.03 (genetic background: wild type).

As to LFVTDGSLLLDL [EDC3 C-terminal 12 aa], the protein stability index by setting is: under setting [1], 0.703 ± 0.014; (genetic background: wild type) 0.685 ± 0.032.
